# In publication PMC7456326:
# Read-outs that look alike come from different tables or passages of the source.
# Assays:
# [1] = biological target: Coh (lacking ELP linker and ddFLN4 domains), ITC construct (R. champanellensis); assay: ITC; 126 uM XMod-Doc injected (27 x 10 uL) into 16.1 uM Coh in the cell; 25 °C; TBS-Ca buffer (25 mM Tris, 72 mM NaCl, 1 mM CaCl2, pH 7.2)
# [2] = biological target: Coh-ddFLN4-ELP-HIS-ybbr, AFM construct (R. champanellensis); assay: AFM single-molecule force spectroscopy (AFM-SMFS); Coh construct covalently on the cantilever tip by its C-terminal ybbR tag, XMod-Doc construct covalently on the cover glass by its N-terminal ybbR tag; 200 ms dwell; constant pulling speed 100, 400, 1600, 6400 nm/s (mutants at 400 nm/s); TBS-Ca buffer; k0 from Bell-Evans or Dudko-Hummer-Szabo fits
# [3] = biological target: Coh-ddFLN4-ELP-HIS-ybbr, AFM construct (R. champanellensis); assay: as above; remark: listed apart in the source
# [4] = biological target: Avi-Coh (E154C)-HIS labelled with maleimide-Cy3b, smFRET construct (R. champanellensis); assay: FRET or BRET; single-molecule FRET in solution on a confocal microscope; labelled Coh (Cy3b) and XMod-Doc (AF647) mixed 1:1 at 1 uM, 1 min, diluted to 200 pM; 50 mM Tris pH 8, 100 mM NaCl, 1 mM CaCl2, Trolox, 1% glucose
substance,measurement,setting,value
"XMod-Doc protein (lacking ELP linker and ddFLN4 domains), ITC construct (domain or fragment)",Kd,[1],1 nM
same,stoichiometry N,[1],1
"ybbr-ELP-ddFLN4-XMod-Doc-HIS (wild type), AFM construct (domain or fragment)","k0 (BE), pathway 1, high force rupture (XMod intact)",[2],4.7e-08 s⁻¹
same,"k0 (BE), pathway 2, low force rupture after XMod unfold",[2],0.000743 s⁻¹
same,"k0 (BE), pathway 3, low force rupture (XMod intact)",[2],2.79e-05 s⁻¹
same,"k0 (DHS, υ = 0.5), pathway 1, high force rupture (XMod intact)",[2],9.39e-05 s⁻¹
same,"k0 (DHS, υ = 0.5), pathway 2, low force rupture after XMod unfold",[2],0.0152 s⁻¹
same,"k0 (DHS, υ = 0.5), pathway 3, low force rupture (XMod intact)",[2],0.831 s⁻¹
same,"k0 (DHS, υ = 2/3), pathway 1, high force rupture (XMod intact)",[2],0.000157 s⁻¹
same,"k0 (DHS, υ = 2/3), pathway 2, low force rupture after XMod unfold",[2],0.101 s⁻¹
same,"k0 (DHS, υ = 2/3), pathway 3, low force rupture (XMod intact)",[2],1.08 s⁻¹
same,"percentage of curves in pathway 3 (binding mode B), 400 nm/s",[2],19%
same,"percentage of curves in pathway 3 (binding mode B), all pulling speeds",[2],17 to 22%
same,"rupture force, pathway 1 (XMod intact)",[2],500 pN
same,"rupture force, pathway 2 (after XMod unfolding)",[2],200 pN
same,"rupture force, pathway 3 (XMod intact)",[2],200 pN
same,"rupture force, pathway 1 (XMod intact)",[3],500 to 600 pN
"ybbr-XMod-Doc (WT, S199AzF)-HIS labelled with DBCO-AF647, smFRET construct (domain or fragment)","mean FRET efficiency, binding mode A",[4],0.71
same,"mean FRET efficiency, binding mode B",[4],0.34
